Reference: IntAct's records for PubMed 11226162

B1: E3 ubiquitin-protein ligase COP1 (Arabidopsis thaliana (Mouse-ear cress)), P43254 (parent)
chain: MEEISTDPVVPAVKPDPRTSSVGEGANRHENDDGGSGGSEIGAPDLDKDLLCPICMQIIKDAFLTACGHSFCYMCIITHLRNKSDCPCCSQHLTNNQLYPNFLLDKLLKKTSARHVSKTASPLDQFREALQRGCDVSIKEVDNLLTLLAERKRKMEQEEAERNMQILLDFLHCLRKQKVDELNEVQTDLQYIKEDINAVERHRIDLYRARDRYSVKLRMLGDDPSTRNAWPHEKNQIGFNSNSLSIRGGNFVGNYQNKKVEGKAQGSSHGLPKKDALSGSDSQSLNQSTVSMARKKRIHAQFNDLQECYLQKRRQLADQPNSKQENDKSVVRREGYSNGLADFQSVLTTFTRYSRLRVIAEIRHGDIFHSANIVSSIEFDRDDELFATAGVSRCIKVFDFSSVVNEPADMQCPIVEMSTRSKLSCLSWNKHEKNHIASSDYEGIVTVWDVTTRQSLMEYEEHEKRAWSVDFSRTEPSMLVSGSDDCKVKVWCTRQEASVINIDMKANICCVKYNPGSSNYIAVGSADHHIHYYDLRNISQPLHVFSGHKKAVSYVKFLSNNELASASTDSTLRLWDVKDNLPVRTFRGHTNEKNFVGLTVNSEYLACGSETNEVYVYHKEITRPVTSHRFGSPDMDDAEEEAGSYFISAVCWKSDSPTMLTANSQGTIKVLVLAA
partner: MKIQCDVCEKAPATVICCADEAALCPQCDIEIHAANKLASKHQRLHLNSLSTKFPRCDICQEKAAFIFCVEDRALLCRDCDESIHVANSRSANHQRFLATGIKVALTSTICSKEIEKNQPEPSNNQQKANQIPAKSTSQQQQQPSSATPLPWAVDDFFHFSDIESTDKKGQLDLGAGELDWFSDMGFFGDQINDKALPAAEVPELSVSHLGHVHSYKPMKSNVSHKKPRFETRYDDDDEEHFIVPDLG
B2: Transcription factor HY5 (Arabidopsis thaliana (Mouse-ear cress)), O24646 (parent)
chain: MQEQATSSLAASSLPSSSERSSSSAPHLEIKEGIESDEEIRRVPEFGGEAVGKETSGRESGSATGQERTQATVGESQRKRGRTPAEKENKRLKRLLRNRVSAQQARERKKAYLSELENRVKDLENKNSELEERLSTLQNENQMLRHILKNTTGNKRGGGGGSNADASL
partner: B1 chain
B3: E3 ubiquitin-protein ligase COP1 (Arabidopsis thaliana (Mouse-ear cress)), P43254 (parent)
chain: B1 chain
partner: B2 chain
B4: B-box zinc finger protein 25 (Arabidopsis thaliana (Mouse-ear cress)), Q9SID1 (parent)
chain: MKIQCDVCEKAPATLICCADEAALCAKCDVEVHAANKLASKHQRLFLDSLSTKFPPCDICLEKAAFIFCVEDRALLCRDCDEATHAPNTRSANHQRFLATGIRVALSSTSCNQEVEKNHFDPSNQQSLSKPPTQQPAAPSPLWATDEFFSYSDLDCSNKEKEQLDLGELDWLAEMGLFGDQPDQEALPVAEVPELSFSHLAHAHSYNRPMKSNVPNKKQRLEYRYDDEEEHFLVPDLG
partner: B1 chain
B5: E3 ubiquitin-protein ligase COP1 (Arabidopsis thaliana (Mouse-ear cress)), P43254 (parent)
chain: B1 chain
partner: B4 chain

Variants of: B1
Details: with BBX24, Q96288-1

How did the “effect of a mutation on the interaction” value turn out when G524E was run?
The value was “decreasing interaction”.

How did the “effect of a mutation on the interaction” value turn out when K550E was run?
Its value is “decreasing interaction”.

For R465E, which “effect of a mutation on the interaction” value is on record?
The value was “decreasing interaction”.

E592R was tested. Which “effect of a mutation on the interaction” value did it give?
Its value is “increasing interaction”.

How did the “effect of a mutation on the interaction” value turn out when W467A was run?
The value was “decreasing interaction”.

For K422E, which “effect of a mutation on the interaction” value is on record?
The value was “decreasing interaction”.

Variants of: B2
Details: with cop1_arath COP1, P43254

For V43A;P44A, which “effect of a mutation on the interaction” value is on record?
Its value is “decreasing interaction”.

Variants of: B3
Details: with hy5_arath HY5, O24646

E592R was tested. Which “effect of a mutation on the interaction” value did it give?
Its value is “increasing interaction”.

W467A was tested. Which “effect of a mutation on the interaction” value did it give?
Its value is “decreasing interaction”.

How did the “effect of a mutation on the interaction” value turn out when K422E was run?
The value was “increasing interaction”.

How did the “effect of a mutation on the interaction” value turn out when K550E was run?
The value was “decreasing interaction”.

With G524E as the variant, how does the “effect of a mutation on the interaction” value read?
The value was “decreasing interaction”.

Variants of: B4
Details: with cop1_arath COP1, P43254

How did the “effect of a mutation on the interaction” value turn out when V234A;P235A was run?
Its value is “decreasing interaction”.

Variants of: B5
Details: with bbx25_arath BBX25, Q9SID1

With E592R as the variant, how does the “effect of a mutation on the interaction” value read?
The value was “increasing interaction”.

For K550E, which “effect of a mutation on the interaction” value is on record?
Its value is “decreasing interaction”.

Which “effect of a mutation on the interaction” value does the source give for K422E here?
The value was “decreasing interaction”.

W467A was tested. Which “effect of a mutation on the interaction” value did it give?
Its value is “decreasing interaction”.

With R465E as the variant, how does the “effect of a mutation on the interaction” value read?
The value was “decreasing interaction”.

How did the “effect of a mutation on the interaction” value turn out when G524E was run?
The value was “decreasing interaction”.
